This assay addresses hTEM8-AP (human) (UniProt Q9H6X2). Put plainly: Biocore (SPR) affinity measurement of anti-TEM8 Fab.

hTEM8-AP (human), sequence (Q9H6X2 33-321): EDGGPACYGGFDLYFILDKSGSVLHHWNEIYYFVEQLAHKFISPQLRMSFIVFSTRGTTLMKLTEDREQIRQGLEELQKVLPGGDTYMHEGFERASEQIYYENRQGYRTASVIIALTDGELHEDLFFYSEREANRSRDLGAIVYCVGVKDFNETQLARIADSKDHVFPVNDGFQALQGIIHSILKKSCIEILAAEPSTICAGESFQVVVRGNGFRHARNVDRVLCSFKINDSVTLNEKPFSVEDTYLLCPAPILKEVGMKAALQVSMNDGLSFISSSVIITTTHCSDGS

As to “M830 anti-TEM8 fragment antigen-binding (Fab)”, the Kd (usually the constant that tells how readily two partners part at equilibrium) was 1.57 nM; the koff (as a rule, a measure of how fast the partners let go of each other) was 0.000953 s⁻¹; the on-rate constant (kon) – broadly, the rate constant with which the complex forms – came to 607000 M⁻¹ s⁻¹.

B1: M825 anti-TEM8 fragment antigen-binding (Fab) (Fab, V domains shown)
VH: QVQLVQSGAEVKKPGTSVKVSCKVPGYTFSSYAISWVRQAPGQGLEWMGGIIPIFGTTNYAQKFQGRVTITGEESTSTVYMELSSLRSEDTAVYYCARDTDYMFDYWGQGTLVTVSS
VL: SSELTQDPVVSVALGETVSITCQGDNLRDFYASWYQQKPGQAPLLVMYGKNRRPSGIPDRFSGSTSGNTLSLTITGAQAEDEADYYCSSRDNSKHVVFGGGTKVTVL
The molecule B1 displayed a Kd of 0.0591 nM, a koff of 0.00018 s⁻¹ and a kon of 3.05e+06 M⁻¹ s⁻¹.

Source of the values: patent US20170112928A1.
